Reference: patent US20080187984A1, “Myo-inositol oxygenases” (Cargill, Incorporated, priority 2001, published 2008)

Biological target: T1, gulono-γ-lactone oxidase (Rattus norvegicus, UniProt P10867, I85V)
T1 construct: His tag (pET30a fusion); made in house; host or cells: E. coli Rosetta(DE3), pET30a
T1 sequence (P10867 1-440 I85V): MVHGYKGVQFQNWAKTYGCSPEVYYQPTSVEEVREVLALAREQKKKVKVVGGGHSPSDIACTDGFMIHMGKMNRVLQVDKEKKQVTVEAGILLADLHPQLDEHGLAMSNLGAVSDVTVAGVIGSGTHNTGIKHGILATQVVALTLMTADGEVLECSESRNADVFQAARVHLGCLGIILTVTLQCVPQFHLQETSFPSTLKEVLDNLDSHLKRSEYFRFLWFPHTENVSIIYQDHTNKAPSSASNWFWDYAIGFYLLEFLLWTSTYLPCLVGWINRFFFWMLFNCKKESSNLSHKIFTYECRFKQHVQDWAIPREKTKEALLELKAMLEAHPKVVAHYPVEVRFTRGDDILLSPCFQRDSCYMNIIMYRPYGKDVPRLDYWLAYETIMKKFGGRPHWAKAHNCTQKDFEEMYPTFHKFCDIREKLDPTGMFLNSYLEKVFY
Assay: GLO assay, ascorbic acid from L-gulono-γ-lactone
Type: biochemical
Details: His-Bind purified from E. coli; 2.5 mM L-gulono-γ-lactone
Experimental: GLO activity was assayed according to the procedure described by Nishikimi (Methods in Enzymology, 62:24-30 (1979)). The assay mixture contained, in 1 mL, 50 mM potassium phosphate buffer, pH 7.5, 2.5 mM L-gulono-γ-lactone, 1 mM EDTA, and enzyme. The reaction was initiated by the addition of either substrate or enzyme, and the mixture was incubated with shaking in air for 15 minutes at 37° C. The reaction was stopped by the addition of 0.1 mL 50% trichloroacetic acid, and the precipitated protein was removed by centrifugation. The product ascorbic acid was detected by the method described in Example 9. Briefly, 0.956 mL 2,2′-dipyridyl reagent was added to 0.15 mL of the supernatant solution, and the reaction mixture was incubated at 25° C. for 15 minutes. After 15 minutes, the sample was centrifuged to remove any precipitate, and the absorbance was read at 525 nm. The 2,2′-dipyridyl reagent contained 0.056 mL ortho-phosphoric acid (85%), 0.75 mL 0.5% 2,2′-dipyridyl (prepared in hot H2O), and 0.15 mL 1% FeCl3 (in H2O). Standards of ascorbic acid (1.0 μg to 10 μg) were run in parallel with the biological samples for a standard curve. One unit is defined as the quantity that catalyzes the formation of 1 nmol of L-ascorbic acid in 1 minute under the conditions described above. Specific activity is expressed as units per mg of protein ([…]/min/mg).

B1: GLO: gulono-γ-lactone oxidase, rat glo expressed from pET30a in E. coli Rosetta(DE3), His-Bind purified (protein, UniProt P10867 2-440, looked up)
L-gulonolactone oxidase: VHGYKGVQFQNWAKTYGCSPEVYYQPTSVEEVREVLALAREQKKKVKVVGGGHSPSDIACTDGFMIHMGKMNRVLQVDKEKKQITVEAGILLADLHPQLDEHGLAMSNLGAVSDVTVAGVIGSGTHNTGIKHGILATQVVALTLMTADGEVLECSESRNADVFQAARVHLGCLGIILTVTLQCVPQFHLQETSFPSTLKEVLDNLDSHLKRSEYFRFLWFPHTENVSIIYQDHTNKAPSSASNWFWDYAIGFYLLEFLLWTSTYLPCLVGWINRFFFWMLFNCKKESSNLSHKIFTYECRFKQHVQDWAIPREKTKEALLELKAMLEAHPKVVAHYPVEVRFTRGDDILLSPCFQRDSCYMNIIMYRPYGKDVPRLDYWLAYETIMKKFGGRPHWAKAHNCTQKDFEEMYPTFHKFCDIREKLDPTGMFLNSYLEKVFY
modifications: His tag
In the case of B1, the “Specific Activity (purified protein)” value is reported as 0.926 nmol/min/mg.
